In assay [1] the target is T1, MET567 (human, UniProt P08581 25-567). As to the kind of experiment: SPR. A general note: Surface plasmon resonance follows binding to a sensor surface in real time, without labels.
Assay [2] deals with T1, MET567. Briefly: SEC-SAXS.

T1 sequence (P08581 25-567): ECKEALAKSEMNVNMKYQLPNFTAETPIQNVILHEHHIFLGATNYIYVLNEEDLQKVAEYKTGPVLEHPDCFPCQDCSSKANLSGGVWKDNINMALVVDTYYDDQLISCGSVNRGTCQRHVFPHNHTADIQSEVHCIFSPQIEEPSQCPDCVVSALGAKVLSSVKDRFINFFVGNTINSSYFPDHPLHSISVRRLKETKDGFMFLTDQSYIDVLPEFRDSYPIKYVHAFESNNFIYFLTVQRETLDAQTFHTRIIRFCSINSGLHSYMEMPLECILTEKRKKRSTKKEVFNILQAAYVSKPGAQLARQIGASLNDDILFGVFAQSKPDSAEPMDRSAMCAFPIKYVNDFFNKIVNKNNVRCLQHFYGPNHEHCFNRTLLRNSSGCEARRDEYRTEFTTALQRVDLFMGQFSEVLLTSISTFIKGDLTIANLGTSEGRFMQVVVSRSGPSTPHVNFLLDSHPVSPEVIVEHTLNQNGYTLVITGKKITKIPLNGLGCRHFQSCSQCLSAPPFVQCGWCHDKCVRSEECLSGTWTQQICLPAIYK

The Kd is the free concentration of one partner at which half of the binding sites on the other are occupied at equilibrium, for simple one-to-one binding. Read a high Kd as weaker binding. By stoichiometry N is commonly meant the number of molecules, sites or subunits per partner or assembly. “K1K1 (from UniProt P14210 128-206) (ligand)” yielded a Kd with MET567 [1] of 205 nM. For the same molecule, the stoichiometry N in the assay with MET567 [2] is 1 K1K1:MET567.

B1: NK1 (domain or fragment, human, UniProt P14210 28-209, looked up)
chain: YAEGQRKRRNTIHEFKKSAKTTLIKIDPALKIKTKKVNTADQCANRCTRNKGLPFTCKAFVFDKARKQCLWFPFNSMSSGVKKEFGHEFDLYENKDYIRNCIIGKGRSYKGTVSITKSGIKCQPWSSMIPHEHSFLPSSYRGKDLQENYCRNPRGEEGGPWCFTSNPEVRYEVCDIPQCSEV
Regarding B1, the affinity in the assay with MET567 [1], expressed as Kd, was 200 nM. In other words, the sub-micromolar range.

For the origin of these results see publication doi:10.1101/2020.07.20.212654 (bioRxiv, 2020).
